Sequences and labels used below:
B3: C. crescentus RNase E catalytic domain, residues 1–575, N-terminally 6xHis tagged (domain or fragment, Caulobacter crescentus, UniProt Q9A749 1-575, looked up)
chain: MSKKMLIDAAHAEETRVVVVDGTRVEEFDFESQTRKQLRGNIYLAKVTRVEPSLQAAFIEYGGNRHGFLAFNEIHPDYYQIPVADREALMRDDSGDDEDDTPISRRASGGDDEDDVNGGDRAVDDDDDDVEEELARRKRRLMRKYKIQEVIRRRQIMLVQVVKEERGNKGAALTTYLSLAGRYGVLMPNTARGGGISRKITAVTDRKRLKSVVQSLDVPQGMGLIVRTAGAKRTKAEIKRDYEYLLRLWENIRENTLHSIAPALIYEEEDLVKRAIRDMYDKDLDGIWVEGDAGYKEARDFMRMLMPSQAKKVFNYRDPTPLFVKNKIEDHLAQIYSPVVPLRSGGYLVINQTEALVAIDVNSGKATRERNIEATALKTNCEAAEEAARQLRLRDLAGLIVIDFIDMDEAKNNRTVEKVLKDALKDDRARIQMGKISGFGLMEISRQRRRTGVLEGTTHVCEHCEGTGRVRSVESSALAALRAVEAEALKGSGSVILKVSRSVGLYILNEKRDYLQRLLTTHGLFVSVVVDDSLHAGDQEIERTELGERIAVAPPPFVEEDDDFDPNAYDDEEEE
notes: tetramer by AUC; also called CcNTD

Series [1] deals with fragment of C. crescentus RNase E containing the S1 and 5′-sensor sub-domains, residues 1–274 (Caulobacter crescentus). As to the kind of experiment: AUC; sedimentation velocity of the co-expressed, co-purified CcNTD(1–274)–RhlB complex at 2 mg/ml in 20-mM Tris pH 7.5, 200-mM NaCl, 20°C, 50 000 rpm.
Series [2] concerns the molecule itself. Put plainly: AUC; recombinant RNase D alone; single species of 85.9 kDa.
Series [3] addresses B3. As to the kind of experiment: AUC; sedimentation velocity of the SEC fractions of the CcNTD(1–575)–RhlB complex; continuous molar mass distribution. To be noted: both partners purified.
Series [4] deals with the molecule itself. Put plainly: AUC; sedimentation velocity, CcNTD(1–575) alone at 2 mg/ml in NTD buffer, 20°C, 40 000 rpm.

As to “RhlB co-expressed with CcNTD_(1–274) (enzyme)”, the stoichiometry N in series [1] was 1.

B1: recombinant RNase D with an N-terminal hexa-histidine tag (enzyme, Caulobacter crescentus (CB15), UniProt Q9A7L8 1-389, looked up)
chain: MKLITTTAELAAFCNGLAGEPFVAVDTEFMRETTYWPKLCLIQVASPTQEAVIDPLADNIDLEPLLVVMRDERILKVFHAARQDVEIFNNLKAMPKPLFDTQVAGMAAGFGEQIAYDALVRQMLRIEIDKSSRFTDWARRPLTDAQLSYALADVTHLAKLFPILRERLETSGRLAWVEEEMTAISDPAAYDVDPEKAWRRLRPRKTAPKYLAVFKAVAAWRERTAQNRDQPRGRILKDEAIDELATQTPGNLEALNNLRGVPKGFGGSKFGPDLLAAIKDALADPEGYAPVVDKPGPPPPQNAGAVVELLKVLLKARAEEAGVASKLIATVSDLEKIAADDNATTPALTGWRREAFGSDALKIKRGELALVLDGARVRVVEVRRAPKND
notes: ribonuclease D; the RNase D gene (cc1704) amplified from C. crescentus (CB15) genomic DNA into pETDuet-1; also called 6xHis-tagged RNase D; not shown: His6, N-terminal, kept
For B1, in series [2], the “stoichiometry N” value stood at 2.

B2: recombinantly expressed and purified RhlB (enzyme, Caulobacter crescentus, UniProt Q9A779 1-517, looked up)
chain: MTEFTDLGLSPTTLQAVADTGYTTATPIQAQAIPVALAGQDVLGIAQTGTGKTAAFTLPLIDRLQSGRAKARMPRALVIAPTRELADQVAASFEKYAKGTKLSWALLIGGVSFGDQEKKLDRGVDVLIATPGRLLDHFERGKLLMTGVQFLVVDEADRMLDMGFIPDIERIFKMTPPKKQTLFFSATMPPEITRLTKQFLRDPVRIEVARPATTNANITQLLVKVPSSDPKAKRLALRALIEKAGIETGIVFCNRKTEVDIVAKSLKVHGYDAAPIHGDLDQTQRMKTLADFRSGALKILVASDVAARGLDIPAVSHVFNYDVPHHADDYVHRIGRTGRAGRTGITYMLVTPADDKGFDKVIKLIGSTPDEEKLDLDYSNAVTVKREGDRKRGGRDRDRGERGERSERPARGRGRGRERAEETVEAPAEAVAEIVDTPAMAEERPARERRPRREREPKAAAPAPTAVEAERPARAERPERPVRGVQPVRDRDDDDRRVVGFGSDVPAFLARPPRGAK
notes: DEAD-box RNA helicase RhlB (cc1847) of Caulobacter crescentus; monomeric in solution; source: recombinantly expressed and purified
For B2, the “stoichiometry N” value in series [3] was 2 RhlB monomers per CcNTD_(1–575) tetramer.

Consider B3, for which the “stoichiometry N” value in series [4] came to 4.
